For assay [1], the target named is T1, urokinase receptor on MCF-7 human breast cancer cells (human, UniProt Q03405 23-305).
T1 construct: whole, on cells; also called uPA receptor; urokinase receptors
The experiment in a line: displacement assay on MCF-7 cells (summary of Example 1).

For assay [2], the target named is T1, urokinase receptor on MCF-7 human …. The experiment in a line: immunocytochemistry of MCF-7 cells with anti-L-methioninase antibody, 18 h treatment.

T1 sequence (Q03405 23-305): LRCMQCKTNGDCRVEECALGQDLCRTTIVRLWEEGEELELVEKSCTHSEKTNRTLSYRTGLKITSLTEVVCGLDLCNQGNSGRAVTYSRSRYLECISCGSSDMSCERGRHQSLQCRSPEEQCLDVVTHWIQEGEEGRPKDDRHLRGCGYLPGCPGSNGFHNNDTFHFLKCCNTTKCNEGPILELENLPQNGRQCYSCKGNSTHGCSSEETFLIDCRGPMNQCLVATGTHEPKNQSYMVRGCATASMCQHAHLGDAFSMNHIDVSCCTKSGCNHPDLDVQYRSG

B1: ATF-methioninase fusion protein (other)
chain: SNELHQVPSNCDCLNGGTCVSNKYFSNIHWCNCPKKFGGQHCEIDKSKTGSGSGSRDSHNNTGFSTRAIHHGYDPLSHGGALVPPVYQTATYAFPTVEYGAACFAGEEAGHFYSRISNPTLALLEQRMASLEGGEAGLALASGMGAITSTLWTLLRPGDELIVGRTLYGCTFAFLHHGIGEFGVKIHHVDLNDAKALKAAINSKTRMIYFETPANPNMQLVDIAAVVEAVRGSDVLVVVDNTYCTPYLQRPLELGADLVVHSATKYLSGHGDITAGLVVGRKALVDRIRLEGLKDMTGAALSPHDAALLMRGIKTLALRMDRHCANALEVAQFLAGQPQVELIHYPGLPSFAQYELAQRQMRLPGGMIAFELKGGIEAGRGFMNALQLFARAVSLGDAESLAQHPASMTHSSYTPQERAHHGISEGLVRLSVGLEDVEDLLADIELALEACA
notes: also called FP
With B1, the binding result in assay [1] was “binds”.

B2: L-methioninase from Pseudomonas putida (enzyme)
chain: MRDSHNNTGFSTRAIHHGYDPLSHGGALVPPVYQTATYAFPTVEYGAACFAGEEAGHFYSRISNPTLALLEQRMASLEGGEAGLALASGMGAITSTLWTLLRPGDELIVGRTLYGCTFAFLHHGIGEFGVKIHHVDLNDAKALKAAINSKTRMIYFETPANPNMQLVDIAAVVEAVRGSDVLVVVDNTYCTPYLQRPLELGADLVVHSATKYLSGHGDITAGLVVGRKALVDRIRLEGLKDMTGAALSPHDAALLMRGIKTLALRMDRHCANALEVAQFLAGQPQVELIHYPGLPSFAQYELAQRQMRLPGGMIAFELKGGIEAGRGFMNALQLFARAVSLGDAESLAQHPASMTHSSYTPQERAHHGISEGLVRLSVGLEDVEDLLADIELALEACA
notes: also called free L-methioninase
For the molecule B2, the binding result in assay [2] is given as “no binding (tested: 10^-6 M)”.

For the origin of these results see patent US20070207158A1 (BOARD OF REGENTS OF THE UNIVERSITY OF OKLAHOMA, published 2007).
